This note sets out measurements from paper PMC3846092.

Broadly, the stoichiometry N is a count of units in the complex or per binding partner.

The target of the test is Cd^2+-bound Y82C-KcsA (UniProt P0A334). As to the kind of experiment: crystal structure.

Substance “Cd^2+-bound Y82C-KcsA (from UniProt P0A334 1-160) (natural protein)” yielded a stoichiometry N of 4.
